Assay results as given in US20180021429A1, “ANTICANCER AGENTS OR ANTIMETASTATIC AGENTS USING FSTL1 AND COMBINATION DRUG THEREOF” (PHARMA FOODS INTERNATIONAL CO., LTD., priority 2015, published 2018).

Key:
[1] = system: induction of mesenchymal stem cells (MSCs) by FSTL1; experiment: Inhibitory activity against induction of MSC by FSTL1, CD45-negative cells (Examples 6, 8, 12); format: cell-based, mouse; conditions: Example 8, FIG. 6A/36A; FSTL1 20 ng/mL; antibody 10 μg/mL; 8 days
Experimental: (§1) Mouse bone marrow cells prepared in the same way as in Example 4 were supplemented with 50 ng/mL (final concentration) of FSTL1 and 10 μg/mL of the anti-FSTL1 antibody (#5-2, #5-3, #5-8, #5-10, 45-43, #6-55, or #7-34) or a control antibody anti-DNP antibody and cultured under stimulation. 11 days thereafter, the number of cells was counted while the cells were stained with a PE-Cy5-labeled anti-CD45 antibody (BD Pharmingen/Becton, Dickinson and Company, Cat. No. 555484), and the content of CD45-negative cells reported to generally contain MSCs at a high rate was analyzed by flow cytometry using FACScan to calculate the percentage and number of MSCs per culture (FIG. 5A).
Mouse bone marrow cells prepared in the same way as in Example 4 were supplemented with 20 ng/mL (final concentration) of FSTL1 and 10 μg/mL of the anti-FSTL1 antibody (#5-2, #5-3, #5-8, #5-10, #5-43, #6-55, #8-1, #8-4, #8-7, and #8-8) or a control antibody anti-DNP antibody and cultured under stimulation. 8 days thereafter, the number of cells was counted while the cells were stained with a PE-Cy5-labeled anti-CD45 antibody, and the content of CD45-negative cells was analyzed by flow cytometry using FACScan to calculate the percentage and number of MSCs per culture (FIG. 6A).
Mouse bone marrow cells prepared in the same way as in Example 4 were supplemented with 20 ng/mL (final concentration) of FSTL1 and 10 μg/mL of the anti-FSTL1 antibody (#5-2, #5-8, #6-55, #7-34, #8-1, #8-4, #8-7, or #8-8) or a control antibody anti-DNP antibody and cultured under stimulation. 8 days thereafter, the number of cells was counted while the cells were stained with a PE-Cy5-labeled anti-CD45 antibody, and the content of CD45-negative cells was analyzed by flow cytometry using FACScan to calculate the percentage and number of MSCs per culture (FIG. 7).
as §1, with “35A).” for “5A).”
Mouse bone marrow cells prepared in the same way as in Example 4 were supplemented with 20 ng/mL (final concentration) of FSTL1 and 10 μg/mL of the anti-FSTL1 antibody (#5-2, #5-3, #5-8, #5-10, #5-43, #6-55, #8-1, #8-4, #8-7, and #8-8) or a control antibody anti-DNP antibody and cultured under stimulation. 8 days thereafter, the number of cells was counted while the cells were stained with a PE-Cy5-labeled anti-CD45 antibody, and the content of CD45-negative cells was analyzed by flow cytometry using FACScan to calculate the percentage and number of MSCs per culture (FIG. 36A).
Mouse bone marrow cells prepared in the same way as in Example 4 were supplemented with 20 ng/mL (final concentration) of FSTL1 and 10 μg/mL of the anti-FSTL1 antibody (#5-2, #5-8, #6-55, #7-34, #8-1, #8-4, #8-7, or #8-8) or a control antibody anti-DNP antibody and cultured under stimulation. 8 days thereafter, the number of cells was counted while the cells were stained with a PE-Cy5-labeled anti-CD45 antibody, and the content of CD45-negative cells was analyzed by flow cytometry using FACScan to calculate the percentage and number of MSCs per culture (FIG. 37).

FSTL1 = target: T1, FSTL1 (Homo sapiens, UniProt Q12841); experiment: Inhibition of MSC induction by FSTL1 in mouse bone marrow cells, CD45-negative cells (Examples 6, 8, 12); format: cell-based; set-up: purchased R&D Systems, Inc. 1694-FN-050; conditions: Example 8; FSTL1 20 ng/mL, antibody 10 μg/mL, 8 days
T1 sequence (Q12841 21-308): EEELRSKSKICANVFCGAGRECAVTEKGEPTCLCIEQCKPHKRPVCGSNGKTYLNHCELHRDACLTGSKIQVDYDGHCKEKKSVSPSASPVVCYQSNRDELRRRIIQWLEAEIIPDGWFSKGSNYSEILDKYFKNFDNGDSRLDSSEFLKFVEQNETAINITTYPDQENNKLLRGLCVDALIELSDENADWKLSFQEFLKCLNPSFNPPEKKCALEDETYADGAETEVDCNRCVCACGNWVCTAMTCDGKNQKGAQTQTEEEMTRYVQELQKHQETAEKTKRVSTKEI
Experimental: as §1, with “CD45− negative” for “CD45-negative”, “67A).” for “5A).”
Mouse bone marrow cells prepared in the same way as in Example 4 were supplemented with 20 ng/mL (final concentration) of FSTL1 and 10 μg/mL of the anti-FSTL1 antibody (#5-2, #5-3, #5-8, #5-10, #5-43, #6-55, #8-1, #8-4, #8-7, and #8-8) or a control antibody anti-DNP antibody and cultured under stimulation. 8 days thereafter, the number of cells was counted while the cells were stained with a PE-Cy5-labeled anti-CD45 antibody, and the content of CD45− negative cells was analyzed by flow cytometry using FACScan to calculate the percentage and number of MSCs per culture (FIG. 68A).
Mouse bone marrow cells prepared in the same way as in Example 4 were supplemented with 20 ng/mL (final concentration) of FSTL1 and 10 μg/mL of the anti-FSTL1 antibody (#5-2, #5-8, #6-55, #7-34, #8-1, #8-4, #8-7, or #8-8) or a control antibody anti-DNP antibody and cultured under stimulation. 8 days thereafter, the number of cells was counted while the cells were stained with a PE-Cy5-labeled anti-CD45 antibody, and the content of CD45− negative cells was analyzed by flow cytometry using FACScan to calculate the percentage and number of MSCs per culture (FIG. 69).

B1: #8-8: chicken-mouse chimeric anti-FSTL1 antibody clone; variable regions SEQ ID NO: 803 (light), 805 (heavy) (antibody, V domains shown)
VH: AVTLDESGGGLQTPGGALSLVCKGSGFTFSSFNMFWVRQAPGKGLEWVAGIGKDGVPKYGAAVDGRATISKDNGQSTMRLQLNNLRAEDTGTYYCAKAAGGCSYGWCGAYTGDIDTWGHGTEVIVSS
VL: ASTQPSSVSANPGEAVKITCSGGSGSYYGWYQQKSPGSAPVTVIYNNNQRPSDIPSRFSGSKSGSTATLTITGVQVEDEAVYFCGGYDSSTGHGGIFGAGTTLTVL
modifications: mouse constant regions
inhibitory activity against the expansion of CD45-negative cells by FSTL1 [1]: Inhibitory activity was confirmed | inhibitory activity against the expansion of CD45-negative cells by FSTL1 (FSTL1): Inhibitory activity was confirmed
